What was measured:
K458A = molecular target: T1, K458A (Homo sapiens, UniProt P78325); test: high-throughput flow cytometry, HEK293 cells with mutant ADAM8, high stringency; range in parentheses; closed box
T1 construct: expressed on HEK293 cells; also called human ADAM8 point mutant K458A
T1 sequence (ADAM8, looked up): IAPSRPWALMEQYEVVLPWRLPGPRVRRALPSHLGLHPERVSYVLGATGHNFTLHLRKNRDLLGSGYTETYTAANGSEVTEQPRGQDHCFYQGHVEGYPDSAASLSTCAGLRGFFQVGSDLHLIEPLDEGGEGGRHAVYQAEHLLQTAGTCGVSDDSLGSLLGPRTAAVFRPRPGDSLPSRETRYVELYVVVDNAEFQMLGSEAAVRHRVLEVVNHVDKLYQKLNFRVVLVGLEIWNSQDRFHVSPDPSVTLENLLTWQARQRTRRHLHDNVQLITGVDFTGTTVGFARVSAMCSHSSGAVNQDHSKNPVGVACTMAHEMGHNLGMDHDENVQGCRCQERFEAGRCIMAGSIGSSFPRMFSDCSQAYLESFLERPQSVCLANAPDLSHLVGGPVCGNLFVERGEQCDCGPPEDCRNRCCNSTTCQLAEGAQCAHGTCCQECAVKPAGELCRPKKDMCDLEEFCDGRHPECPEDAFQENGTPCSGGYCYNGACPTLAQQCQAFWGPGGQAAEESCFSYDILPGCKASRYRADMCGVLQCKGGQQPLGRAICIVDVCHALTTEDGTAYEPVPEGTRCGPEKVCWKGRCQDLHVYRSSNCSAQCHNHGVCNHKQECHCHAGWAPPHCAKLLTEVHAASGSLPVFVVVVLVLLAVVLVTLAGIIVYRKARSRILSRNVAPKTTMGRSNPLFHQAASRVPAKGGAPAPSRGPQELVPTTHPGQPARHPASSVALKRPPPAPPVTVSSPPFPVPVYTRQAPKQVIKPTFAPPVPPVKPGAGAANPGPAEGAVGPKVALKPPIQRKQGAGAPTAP
Description: (§1) A variety of experimental parameters were optimized for high-throughput flow cytometry including blocking buffer, and primary and secondary antibody concentrations, to identify the optimal conditions for screening. Through these studies ADP2 and ADP13 were determined to be high affinity binding antibodies.
(§2) Thus, for these studies antigen-binding fragments (Fabs) of ADP2 and ADP13, which bind with lower affinity than the full antibody, were generated. In addition, higher binding stringency conditions were tested, such as increased pH, salinity, and temperature, and/or increased washing, to weaken binding sufficiently to allow identification of critical binding residues in flow cytometry. The final experimental flow cytometry conditions were: primary antibody incubation with ADP2 Fab (0.50 μg/ml), ADP13 Fab (5.00 μg/ml) and Control Ab (0.16 μg/ml) for 60 minutes in flow cytometry buffer containing 10% goat serum in PBS (Ca²⁺ and Mg²⁺ free). […] Samples were washed three times after primary antibody incubation and twice after secondary antibody incubation with PBS (Ca²⁺ and Mg′ free). Next, HEK293 cells expressing WT or mutated ADAM8 proteins or EV DNA were incubated with ADP2 or ADP13 Fabs or Control Ab at their optimal concentrations. Fab binding was detected using Alexa Fluor 488-conjugated secondary antibodies and mean cellular fluorescence determined using the Intellicyt iQue flow cytometry platform. […] This counter-screen strategy facilitates the exclusion of mutants that are locally misfolded or that have an expression defect. Binding of each test Fab to each mutant clone in the alanine scanning library was determined, in duplicate, by high-throughput flow cytometry.

R482A = molecular target: T2, R482A (Homo sapiens, UniProt P78325); test: high-throughput flow cytometry, HEK293 cells with mutant ADAM8, high stringency; range in parentheses
T2 construct: expressed on HEK293 cells; also called human ADAM8 point mutant R482A
T2 sequence (ADAM8, looked up): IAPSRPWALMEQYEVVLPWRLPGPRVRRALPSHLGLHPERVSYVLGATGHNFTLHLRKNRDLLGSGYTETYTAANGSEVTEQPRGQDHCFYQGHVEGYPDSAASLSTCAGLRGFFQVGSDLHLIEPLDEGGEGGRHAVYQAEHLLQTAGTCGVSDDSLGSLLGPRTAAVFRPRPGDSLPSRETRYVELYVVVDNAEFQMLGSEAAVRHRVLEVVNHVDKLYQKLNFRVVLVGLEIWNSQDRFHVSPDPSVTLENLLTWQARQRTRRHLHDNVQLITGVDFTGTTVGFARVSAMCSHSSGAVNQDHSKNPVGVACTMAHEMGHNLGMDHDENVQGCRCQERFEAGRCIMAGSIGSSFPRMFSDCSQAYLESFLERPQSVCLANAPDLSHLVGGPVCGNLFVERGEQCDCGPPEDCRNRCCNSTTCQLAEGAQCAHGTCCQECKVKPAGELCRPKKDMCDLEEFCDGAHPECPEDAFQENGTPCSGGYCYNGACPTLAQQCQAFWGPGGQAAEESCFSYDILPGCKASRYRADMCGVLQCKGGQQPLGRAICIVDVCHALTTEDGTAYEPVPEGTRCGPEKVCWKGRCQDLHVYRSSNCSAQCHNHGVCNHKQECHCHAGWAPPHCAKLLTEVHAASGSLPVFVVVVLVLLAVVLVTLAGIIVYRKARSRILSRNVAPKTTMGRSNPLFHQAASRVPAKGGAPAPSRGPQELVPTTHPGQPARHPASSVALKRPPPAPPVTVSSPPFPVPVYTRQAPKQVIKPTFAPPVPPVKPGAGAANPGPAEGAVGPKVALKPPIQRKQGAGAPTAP
Description: as §1, §2

Binder | Binding Reactivity (% WT) (K458A) | Binding Reactivity (% WT) (R482A)
ADP13 Fab (Fab, V domains shown) VH: EVQLQQSGPEMVKPGTSVKISCKASGYTFTDYYINWVKQSHGKSLEWIGDISPNIGGATYNPKFKGKAILTVDKSARTAYMELRSLTSEDSAVYCCTRGGSSYPYFYAMDYWGQGTSVTVSS VL: DIVMSQSPSSLAVSVGEKVTMSCKSSQSLLYSSNQKKYLAWYQQKPGQSPKLLIYWASTRESGVPDRFTGSGSGTDFTLTISSVKAEDLAVYYCQQFYSYPYTFGGGTKLEINR | 13.5 % WT | –
ADP2 Fab (Fab, V domains shown) VH: EVKLVESGGGLVQPGGSLSLSCAASGFSFPDYYMSWVRQPPGKALEWLGFIRDSANGYTTEYIASVKGRFTFSRDNSQSILYLQMNALRAEDSATYYCARYSRYYGMDYWGQGTSVTVSS VL: SIVMTQTPKILLVSAGDRVTITCKASQTVNYDVAWYQQKPGQSPKPVIYFASNRYTGVPDRFTGSGFGTDFTFTISTVQAEDLAVYFCQQDYSAPWTFGGGTKLEIK | – | 113 % WT

Reference: patent publication US20220227882A1 (TRUSTEES OF TUFTS COLLEGE, published 2022)
